This note sets out measurements from article PMC10662374, “Structures of the interleukin 11 signalling complex reveal gp130 dynamics and the inhibitory mechanism of a cytokine variant” (Nature Communications, 2023).

Assay [1] has as its target IL-11_(Δ10/PAIDY)/IL-11Rα_(D1-D3) binary complex (human) (UniProt P20809). Put plainly: ITC; gp130 in the syringe titrated against the cytokine/IL-11Rα_(D1-D3) complex formed in the cell, 288 K, TBS pH 8.5, 1:1 interaction model, n = 3.
The target in assay [2] is IL-11_(Δ10/W147A)/IL-11Rα_(D1-D3) binary complex (human) (UniProt P20809). Described as above.
Assay [3] deals with T1, IL-11Δ10/IL-11Rα_(D1-D3) binary complex (human, UniProt P20809 32-199; Q14626 23-319).
T1 construct: IL-11, human, IL-11Δ10, as m1; numbers count on: the mature protein; IL-11Rα, human, D1-D3, as m8; m1 with m8; also called IL-11Rα_(D1-D3)/IL-11Δ10 binary complex; binary IL-11/IL-11Rα complex; source: formed from the purified proteins (IL-11Δ10 from E. coli, IL-11Rα_(D1-D3) from Sf21); in ITC by titrating the cytokine into IL-11Rα; not shown: His6, N-terminal, cleaved; His8, N-terminal, cleaved; …
T1 sequence 1: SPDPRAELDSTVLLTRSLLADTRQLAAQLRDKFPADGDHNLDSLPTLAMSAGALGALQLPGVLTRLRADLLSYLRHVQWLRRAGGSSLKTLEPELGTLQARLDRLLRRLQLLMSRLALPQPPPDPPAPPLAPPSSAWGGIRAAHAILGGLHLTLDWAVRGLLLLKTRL
T1 sequence 2: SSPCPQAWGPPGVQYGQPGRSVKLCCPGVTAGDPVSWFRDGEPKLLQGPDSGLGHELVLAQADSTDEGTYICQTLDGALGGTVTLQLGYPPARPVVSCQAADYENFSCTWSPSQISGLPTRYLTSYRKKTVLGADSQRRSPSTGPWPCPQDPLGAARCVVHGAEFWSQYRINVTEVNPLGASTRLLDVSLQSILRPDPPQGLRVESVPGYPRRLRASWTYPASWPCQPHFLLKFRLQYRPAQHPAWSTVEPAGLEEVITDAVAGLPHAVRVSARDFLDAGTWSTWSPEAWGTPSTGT
The assay is described as above.

The target in the next assay is T2, IL-11Ralpha D1-D3 (Homo sapiens, UniProt Q14626).
T2 chain: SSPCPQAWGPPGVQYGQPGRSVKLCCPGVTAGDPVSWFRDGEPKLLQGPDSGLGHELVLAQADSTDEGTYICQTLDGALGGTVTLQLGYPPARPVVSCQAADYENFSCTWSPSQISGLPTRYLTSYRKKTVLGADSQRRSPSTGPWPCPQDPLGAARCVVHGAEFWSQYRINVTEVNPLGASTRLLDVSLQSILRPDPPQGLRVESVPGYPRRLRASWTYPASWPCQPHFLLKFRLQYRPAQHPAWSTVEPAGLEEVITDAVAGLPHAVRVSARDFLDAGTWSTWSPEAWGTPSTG
Put plainly: ITC.

The target in assay [4] is T3, IL-11Rα_(D1-D3) (human, UniProt Q14626 23-319, N-linked glycans (N105, N172 seen in the structures)).
T3 construct: Secreted with a honeybee-melittin signal peptide; also called C-terminally truncated form of IL-11Rα; not shown: His8, N-terminal, cleaved
T3 sequence: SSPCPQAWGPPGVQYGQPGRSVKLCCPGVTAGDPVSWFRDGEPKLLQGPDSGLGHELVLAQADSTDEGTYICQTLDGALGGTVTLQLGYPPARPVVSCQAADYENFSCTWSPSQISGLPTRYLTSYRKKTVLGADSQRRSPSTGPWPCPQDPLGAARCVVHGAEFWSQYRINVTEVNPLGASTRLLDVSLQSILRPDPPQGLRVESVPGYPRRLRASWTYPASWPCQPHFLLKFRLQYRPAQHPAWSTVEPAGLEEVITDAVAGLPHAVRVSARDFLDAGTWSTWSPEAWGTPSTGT
Description: ITC; cytokine in the syringe (10-fold above IL-11Rα), IL-11Rα_(D1-D3) in the cell at 10 μM, TBS pH 8.5, 1:1 interaction model, n = 3. The conditions noted are these: both partners purified.

Assay [5] concerns the target T3, IL-11Rα_(D1-D3). Put plainly: SPR; Biacore T200, 25 °C, TBS pH 8.5 + 0.05% Tween, 30 μL/min; biotinylated IL-11-avi on a streptavidin chip, IL-11Rα_(D1-D3) flowed over (two-fold dilutions from 500 nM), 1:1 kinetic model, n = 2. The conditions noted are these: both partners purified.
Assay [6] concerns the target T4, IL-11RαD1-D3 (C-terminally truncated form of human IL-11Rα, structured extracellular domains D1-D3) (human, UniProt Q14626 23-319).
T4 construct: interleukin 11 receptor subunit alpha, human, domains D1-D3 (C-terminally truncated extracellular region); Expressed with a honeybee-melittin signal peptide; not shown: His8, N-terminal, cleaved
T4 sequence: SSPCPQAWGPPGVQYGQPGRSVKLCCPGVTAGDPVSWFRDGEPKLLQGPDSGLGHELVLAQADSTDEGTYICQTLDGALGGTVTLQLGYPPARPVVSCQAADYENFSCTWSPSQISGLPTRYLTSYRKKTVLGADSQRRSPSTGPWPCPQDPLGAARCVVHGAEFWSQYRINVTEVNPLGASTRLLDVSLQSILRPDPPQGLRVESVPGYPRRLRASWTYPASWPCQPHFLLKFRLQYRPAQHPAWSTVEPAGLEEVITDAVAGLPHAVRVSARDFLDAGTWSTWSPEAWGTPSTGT
Description: SPR; Biacore T200; biotinylated IL-11-avi constructs immobilised on a streptavidin chip; IL-11RαD1-D3 injected, two-fold dilutions from 500 nM; 25 °C (298 K); TBS pH 8.5 + 0.05% Tween; 30 μL/min; 1:1 kinetic model; n = 2. The conditions noted are these: both partners purified.

Like-named read-outs stand apart in the source and are kept apart here.

On to gp130_(D2-D3) (receptor), for which the Kd in assay [1] was found to be 60 nM; in assay [2] it was 130 nM; in assay [3], 380 nM. Also, the dH in assay [3] was determined as 6.45 kcal/mol.

B1: gp130EC (receptor, human, UniProt P40189 23-619, looked up)
chain: ELLDPCGYISPESPVVQLHSNFTAVCVLKEKCMDYFHVNANYIVWKTNHFTIPKEQYTIINRTASSVTFTDIASLNIQLTCNILTFGQLEQNVYGITIISGLPPEKPKNLSCIVNEGKKMRCEWDGGRETHLETNFTLKSEWATHKFADCKAKRDTPTSCTVDYSTVYFVNIEVWVEAENALGKVTSDHINFDPVYKVKPNPPHNLSVINSEELSSILKLTWTNPSIKSVIILKYNIQYRTKDASTWSQIPPEDTASTRSSFTVQDLKPFTEYVFRIRCMKEDGKGYWSDWSEEASGITYEDRPSKAPSFWYKIDPSHTQGYRTVQLVWKTLPPFEANGKILDYEVTLTRWKSHLQNYTVNATKLTVNLTNDRYLATLTVRNLVGKSDAAVLTIPACDFQATHPVMDLKAFPKDNMLWVEWTTPRESVKKYILEWCVLSDKAPCITDWQQEDGTVHRTYLRGNLAESKCYLITVTPVYADGPGSPESIKAYLKQAPPSKGPTVRTKKVGKNEAVLEWDQLPVDVQNGFIRNYTIFYRTIIGNETAVNVDSSHTEYTLSSLTSDTLYMVRMAAYTDEGGKDGPEFTFTTPKFAQGEIE
modifications: N-linked glycans (N21, N61, N135 seen in the structures)
notes: Secreted with a honeybee-melittin signal peptide; D5-D6 are not in the deposited model 8DPT; also called complete extracellular domains of gp130; D1-D6 domains of gp130; not shown: His8, N-terminal, cleaved
Consider B1, for which the dH in assay [3] (both partners purified) was -4.78 kcal/mol.

B2: IL-11_(Δ10/W147A) (ligand, human)
chain: SPDPRAELDSTVLLTRSLLADTRQLAAQLRDKFPADGDHNLDSLPTLAMSAGALGALQLPGVLTRLRADLLSYLRHVQWLRRAGGSSLKTLEPELGTLQARLDRLLRRLQLLMSRLALPQPPPDPPAPPLAPPSSAAGGIRAAHAILGGLHLTLDWAVRGLLLLKTRL
notes: interleukin 11 (IL-11), human, IL-11Δ10 with W147A; numbers count on: the mature protein; also called IL-11 W147A; W147A mutant; not shown: His6, N-terminal, cleaved
For B2, the dissociation constant (Kd) with IL-11Ralpha D1-D3 came to 10.4 nM; with IL-11Rα_(D1-D3) [4], 10 nM.

B3: biotinylated IL-11Δ10-avi (ligand, human)
chain: SPDPRAELDSTVLLTRSLLADTRQLAAQLRDKFPADGDHNLDSLPTLAMSAGALGALQLPGVLTRLRADLLSYLRHVQWLRRAGGSSLKTLEPELGTLQARLDRLLRRLQLLMSRLALPQPPPDPPAPPLAPPSSAWGGIRAAHAILGGLHLTLDWAVRGLLLLKTRL
modifications: biotin on the C-terminal avitag
notes: interleukin 11 (IL-11), human, N-terminally truncated form IL-11Δ10; numbers count on: the mature protein; source: E. coli BL21(DE3), biotinylated, purified as IL-11Δ10; not shown: His6, N-terminal, cleaved; avitag, C-terminal, kept
B3: in the assay with IL-11Rα_(D1-D3) [5], the koff was 0.11 s⁻¹.

B4: biotinylated IL-11Δ10-avi (ligand, human)
chain: SPDPRAELDSTVLLTRSLLADTRQLAAQLRDKFPADGDHNLDSLPTLAMSAGALGALQLPGVLTRLRADLLSYLRHVQWLRRAGGSSLKTLEPELGTLQARLDRLLRRLQLLMSRLALPQPPPDPPAPPLAPPSSAWGGIRAAHAILGGLHLTLDWAVRGLLLLKTRL
modifications: biotin on the C-terminal avitag
notes: interleukin 11, human, N-terminally truncated form (Δ10), as Dm1; numbers count on: the mature protein; also called IL11Δ10 - Avitag; source: E. coli BL21(DE3), biotinylated in the cells, purified as IL-11Δ10; not shown: avitag, C-terminal, kept; His6, N-terminal, cleaved
Turning to B4, in assay [6], the Kd worked out at 78 nM and the kon is 1.4e+06 M⁻¹ s⁻¹.
